{"source": "paper doi:10.1101/2021.05.06.441297", "target": "fluorescently labeled non-covalent analog of peptide 5 (UniProt P46937)", "sequence (P46937 whole entry, looked up, tested part not stated)": "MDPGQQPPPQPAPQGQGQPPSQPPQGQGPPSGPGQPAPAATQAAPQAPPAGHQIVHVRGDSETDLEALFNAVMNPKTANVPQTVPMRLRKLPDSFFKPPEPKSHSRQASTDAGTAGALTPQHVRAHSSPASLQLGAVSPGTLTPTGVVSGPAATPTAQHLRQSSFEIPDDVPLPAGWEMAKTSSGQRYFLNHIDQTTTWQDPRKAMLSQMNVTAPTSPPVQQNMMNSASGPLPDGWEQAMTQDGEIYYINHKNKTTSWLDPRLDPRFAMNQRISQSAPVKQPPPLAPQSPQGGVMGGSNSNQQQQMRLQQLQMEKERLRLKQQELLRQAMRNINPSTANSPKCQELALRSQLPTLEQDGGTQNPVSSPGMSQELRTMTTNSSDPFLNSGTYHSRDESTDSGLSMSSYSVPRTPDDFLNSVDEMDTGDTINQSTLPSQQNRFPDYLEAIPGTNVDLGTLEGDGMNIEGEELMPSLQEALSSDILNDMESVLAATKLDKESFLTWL", "assay": "fluorescence polarisation", "data": [{"substance": "14-3-3σ full length (1-248) (natural protein)", "values": [{"measurement": "Kd", "result": 0.106, "unit": "µM"}]}]}
